Molecular target: Csk (UniProt P41240)
Test: p140Cap IP, Csk western blot
Details: reference: wild type, sites Y264,Y396

Row | Substance | binding against the reference (FBS time course) | binding against the reference
1 | p140Cap (from UniProt Q9C0H9) Y264F/Y396F double mutant, FBS time course | lost | –
2 | p140Cap (from UniProt Q9C0H9) Y264F/Y396F double mutant | – | lost

Reference: PMC3561454
